Measured values as given in patent publication US20260209339A1 (RADIANT BIOTHERAPEUTICS, published 2026).
Where two headings read alike, the source gives them in different places. Each block holds one molecule with its values, some of them ahead of it.

Assays:
interleukin-6 (IL-6) [1] = target: interleukin-6 (IL-6) (UniProt P05231); test: ELISA on IL-6
interleukin-6 (IL-6) [2] = target: interleukin-6 (IL-6) (UniProt P05231); test: cell-based or functional assay
interleukin-6 (IL-6) [3] = target: interleukin-6 (IL-6) (UniProt P05231); test: BLI (Octet), IL-6 immobilized on the biosensor
interleukin-11 (IL-11) [4] = target: T1, interleukin-11 (IL-11) (UniProt P20809); test: ELISA on IL-11
T1 sequence (looked up): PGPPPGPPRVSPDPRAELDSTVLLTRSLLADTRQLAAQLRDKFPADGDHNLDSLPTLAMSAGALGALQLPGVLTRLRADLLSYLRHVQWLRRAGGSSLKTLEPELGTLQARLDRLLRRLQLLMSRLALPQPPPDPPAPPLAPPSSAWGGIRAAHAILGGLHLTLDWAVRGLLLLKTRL

interleukin-11 (IL-11) [5] = target: T1, interleukin-11 (IL-11); test: cell-based or functional assay
interleukin-11 (IL-11) [6] = target: T2, interleukin-11 (IL-11) (UniProt P20809 22-199, limits assumed); test: ELISA on IL-11
T2 sequence (looked up): T1 sequence (looked up)
Protocol: Binding of anti-IL-11 Multabodies to IL-11 was assessed using an enzyme-linked immunosorbent assay (ELISA).

interleukin-11 (IL-11) [7] = target: T2, interleukin-11 (IL-11); test: cell-based or functional assay
interleukin-11 (IL-11) [8] = target: T2, interleukin-11 (IL-11); test: ELISA
[9] = target: bovine serum albumin (BSA) (bovine, UniProt P02769 25-607); test: ELISA
interleukin-6 (IL-6) [10] = target: T3, interleukin-6 (IL-6) (UniProt P05231 30-212); test: ELISA on IL-6
interleukin-6 (IL-6) [11] = target: T3, interleukin-6 (IL-6); test: cell-based or functional assay
interleukin-6 (IL-6) [12] = target: T3, interleukin-6 (IL-6); test: cell-based or functional assay; remark: listed apart in the source
interleukin-6 (IL-6) [13] = target: T3, interleukin-6 (IL-6); test: BLI (Octet), IL-6 immobilized on the biosensor
Description: This method measures binding reactions at the surface of a fiber optic biosensor functionalized with an immobilized target moiety (e.g., IL-6).

interleukin-6 (IL-6) [14] = target: interleukin-6 (IL-6) (UniProt P05231); test: cell-based or functional assay; remark: listed apart in the source
interleukin-6 (IL-6) [15] = target: T3, interleukin-6 (IL-6); test: cell-based or functional assay; remark: listed apart in the source

Sequence of bovine serum albumin (BSA) (P02769 25-607 limits assumed): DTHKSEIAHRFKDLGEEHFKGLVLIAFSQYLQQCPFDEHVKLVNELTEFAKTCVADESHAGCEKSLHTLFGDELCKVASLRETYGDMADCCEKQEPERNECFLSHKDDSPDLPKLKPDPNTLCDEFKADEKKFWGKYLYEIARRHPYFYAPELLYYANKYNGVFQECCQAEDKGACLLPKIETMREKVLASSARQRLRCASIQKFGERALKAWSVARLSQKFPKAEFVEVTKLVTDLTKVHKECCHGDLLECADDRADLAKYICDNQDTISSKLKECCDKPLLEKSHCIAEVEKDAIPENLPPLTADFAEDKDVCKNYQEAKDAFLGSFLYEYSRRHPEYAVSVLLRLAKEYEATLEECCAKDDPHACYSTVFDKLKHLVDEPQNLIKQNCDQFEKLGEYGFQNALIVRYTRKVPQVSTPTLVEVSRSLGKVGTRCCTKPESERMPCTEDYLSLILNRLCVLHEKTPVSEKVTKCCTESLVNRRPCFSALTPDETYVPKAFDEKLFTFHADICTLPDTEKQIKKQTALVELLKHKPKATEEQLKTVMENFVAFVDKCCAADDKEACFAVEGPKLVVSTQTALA
Sequence of interleukin-6 (IL-6) (UniProt P05231) (P05231 30-212 limits assumed): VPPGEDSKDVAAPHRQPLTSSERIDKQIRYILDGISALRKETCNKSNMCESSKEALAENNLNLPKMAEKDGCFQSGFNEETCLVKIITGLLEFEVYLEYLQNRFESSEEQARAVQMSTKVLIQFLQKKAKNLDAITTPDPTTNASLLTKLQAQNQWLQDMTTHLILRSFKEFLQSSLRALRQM

Molecule: Siltuximab Multabody (MB) (from UniProt P04945 1-108)
EC50 (interleukin-6 (IL-6) [1]): 0.0353 nM
Fold change (IgG vs. Multabody), IL-6 Bioassay IC50 (interleukin-6 (IL-6) [2]): 26 fold
Fold change, INA-6 proliferation IC50 (IgG against MB) (interleukin-6 (IL-6) [2]): 9 fold
IC50 (nM), proliferation of IL-6-dependent INA-6 cells (CellTiter-Glo) (interleukin-6 (IL-6) [2]): 0.67 nM
IC50 (pM), IL-6 Bioassay (luciferase reporter cells) (interleukin-6 (IL-6) [2]): 44 pM
Kd (interleukin-6 (IL-6) [3]): < 1 pM

B4: Olokizumab Multabody (MB) (protein, part only; not given: Fab constants, linkers, ferritin carriers, not shown: another chain or arm of the molecule; a dimerising Fc or GST; large carriers; small tags and cut ends)
VH: EVQLVESGGGLVQPGGSLRLSCAASGFNFNDYFMNWVRQAPGKGLEWVAQMRNKNYQYGTYYAESLEGRFTISRDDSKNSLYLQMNSLKTEDTAVYYCARESYYGFTSYWGQGTLVTVSS
VL: DIQMTQSPSSLSASVGDRVTITCQASQDIGISLSWYQQKPGKAPKLLIYNANNLADGVPSRFSGSGSGTDFTLTISSLQPEDFATYYCLQHNSAPYTFGQGTKLEIK
EC50 (interleukin-6 (IL-6) [1]): 0.0454 nM
Fold change (IgG vs. Multabody), IL-6 Bioassay IC50 (interleukin-6 (IL-6) [14]): 60 fold
Fold change (IgG/MB), IL-6-induced pSTAT3/STAT3 IC50, HCT-15 cells (interleukin-6 (IL-6) [14]): 7 fold
Fold change (IgG/MB), IL-6-induced pSTAT3/STAT3 IC50, THP-1 cells (interleukin-6 (IL-6) [14]): 8 fold
Fold change, INA-6 proliferation IC50 (IgG against MB) (interleukin-6 (IL-6) [14]): 16 fold
IC50 (nM), IL-6-induced pSTAT3/STAT3 (Meso Scale Discovery), HCT-15 cells (interleukin-6 (IL-6) [14]): 0.03 nM
IC50 (nM), IL-6-induced pSTAT3/STAT3 (Meso Scale Discovery), THP-1 cells (interleukin-6 (IL-6) [14]): 0.06 nM
IC50 (nM), proliferation of IL-6-dependent INA-6 cells (CellTiter-Glo) (interleukin-6 (IL-6) [14]): 0.33 nM
IC50 (pM), IL-6 Bioassay (luciferase reporter cells) (interleukin-6 (IL-6) [14]): 9.4 pM
Kd (interleukin-6 (IL-6) [3]): < 1 pM

B6: Clazakizumab Multabody (MB) (protein, part only; not given: Fab constants, linkers, ferritin carriers, not shown: another chain or arm of the molecule; a dimerising Fc or GST; large carriers; small tags and cut ends)
VH: EVQLVESGGGLVQPGGSLRLSCAASGFSLSNYYVTWVRQAPGKGLEWVGIIYGSDETAYATSAIGRFTISRDNSKNTLYLQMNSLRAEDTAVYYCARDDSSDWDAKFNLWGQGTLVTVSS
VL: AIQMTQSPSSLSASVGDRVTITCQASQSINNELSWYQQKPGKAPKLLIYRASTLASGVPSRFSGSGSGTDFTLTISSLQPDDFATYYCQQGYSLRNIDNAFGGGTKVEIK
EC50 (interleukin-6 (IL-6) [1]): 0.0543 nM
Fold change (IgG vs. Multabody), IL-6 Bioassay IC50 (interleukin-6 (IL-6) [14]): 6 fold
IC50 (pM), IL-6 Bioassay (luciferase reporter cells) (interleukin-6 (IL-6) [14]): 100 pM
Kd (interleukin-6 (IL-6) [3]): < 1 pM

Next, values leading:

EC50 (interleukin-11 (IL-11) [4]): 0.659 nM
fold better binding than the parental IgG control (interleukin-11 (IL-11) [4]): 3 to 4 fold
Fold change, IL-11-dependent pSTAT3/STAT3 IC50 (IgG against MB), Panc-1 cells (interleukin-11 (IL-11) [5]): 6 fold
IC50 (nM), IL-11-dependent pSTAT3/STAT3 (Meso Scale Discovery), Panc-1 cells (interleukin-11 (IL-11) [5]): 0.13 nM
B1: anti-IL-11 Multabody (MB), source antibody TPP-29536 (protein, part only; not given: Fab constants, linkers, ferritin carriers, not shown: another chain or arm of the molecule; a dimerising Fc or GST; large carriers; small tags and cut ends)
VH: EVQLLESGGGLVQPGGSLRLSCAASGFTFSSYGMHWVRQAPGKGLEWVAVISYDGSYKYYADSVKGRFTISRDNSKNTLYLQMNSLRAEDTAVYYCAAGVPDYWGQGTLVTVSS
VL: QSVLTQPPSASGTPGQRVTISCSGSSSNIGSDYDVHWYQQLPGTAPKLLIYSNEERPSGVPDRFSGSKSGTSASLAISGLRSEDEADYYCSAWDSSLSGPVFGGGTKLTVL

EC50 (interleukin-11 (IL-11) [6]): 2.71 nM
IC50 (nM), IL-11-dependent pSTAT3/STAT3 (Meso Scale Discovery), Panc-1 cells (interleukin-11 (IL-11) [7]): 0.79 nM
B2: TPP-29536 IgG (antibody, V domains shown)
VH: B1 VH
VL: B1 VL
notes: Tested as parental IgG; also called anti-IL-11 IgG; parental IgG control

binding result (interleukin-11 (IL-11) [8]): no binding
binding result [9]: no binding
EC50 (interleukin-6 (IL-6) [10]): 0.154 nM
IC50 (pM), IL-6 Bioassay (luciferase reporter cells) (interleukin-6 (IL-6) [11]): 1150 pM
IC50 (nM), proliferation of IL-6-dependent INA-6 cells (CellTiter-Glo) (interleukin-6 (IL-6) [12]): 5.88 nM
Kd (interleukin-6 (IL-6) [13]): < 1 pM
B3: siltuximab immunoglobulin (IgG) (antibody, V domains shown)
VH: EVQLVESGGKLLKPGGSLKLSCAASGFTFSSFAMSWFRQSPEKRLEWVAEISSGGSYTYYPDTVTGRFTISRDNAKNTLYLEMSSLRSEDTAMYYCARGLWGYYALDYWGQGTSVTVSS
VL: QIVLIQSPAIMSASPGEKVTMTCSASSSVSYMYWYQQKPGSSPRLLIYDTSNLASGVPVRFSGSGSGTSYSLTISRMEAEDAATYYCQQWSGYPYTFGGGTKLEIKR
notes: Tested as parental IgG; also called siltuximab IgG; CNTO-328

binding result (interleukin-11 (IL-11) [8]): no binding
binding result [9]: no binding
EC50 (interleukin-6 (IL-6) [10]): 0.201 nM
IC50 (pM), IL-6 Bioassay (luciferase reporter cells) (interleukin-6 (IL-6) [11]): 566 pM
IC50 (nM), IL-6-induced pSTAT3/STAT3 (Meso Scale Discovery), HCT-15 cells (interleukin-6 (IL-6) [15]): 0.2 nM
IC50 (nM), IL-6-induced pSTAT3/STAT3 (Meso Scale Discovery), THP-1 cells (interleukin-6 (IL-6) [15]): 0.48 nM
IC50 (nM), proliferation of IL-6-dependent INA-6 cells (CellTiter-Glo) (interleukin-6 (IL-6) [12]): 5.29 nM
Kd (interleukin-6 (IL-6) [13]): < 1 pM
B5: olokizumab IgG (antibody, V domains shown)
VH: B4 VH
VL: DIQMTQSPSSLSASVGDRVTITCQASQDIGISLSWYQQKPGKAPKLLIYNANNLADGVPSRFSGSGSGTDFTLTISSLQPEDFATYYCLQHNSAPYTFGQGTKLEIKR
notes: Tested as parental IgG; also called CDP6038

binding result (interleukin-11 (IL-11) [8]): no binding
binding result [9]: no binding
EC50 (interleukin-6 (IL-6) [10]): 0.176 nM
IC50 (pM), IL-6 Bioassay (luciferase reporter cells) (interleukin-6 (IL-6) [11]): 604 pM
Kd (interleukin-6 (IL-6) [13]): < 1 pM
B7: clazakizumab IgG (antibody, V domains shown)
VH: B6 VH
VL: AIQMTQSPSSLSASVGDRVTITCQASQSINNELSWYQQKPGKAPKLLIYRASTLASGVPSRFSGSGSGTDFTLTISSLQPDDFATYYCQQGYSLRNIDNAFGGGTKVEIKR
notes: Tested as parental IgG
